Our source for the Km and kcat values is article PMC4549619, “Engineering catechol 1, 2-dioxygenase by design for improving the performance of the cis, cis-muconic acid synthetic pathway in Escherichia coli” (Scientific Reports, 2015).

For one series, the system named is Oc1ccccc1O. The experiment in a line: initial rates, OD260 product formation, Michaelis-Menten nonlinear fit. Format: biochemical, Acinetobacter baylyi. The note with it: 100 mM potassium phosphate pH 7.4, 25 °C, catechol 0-200 μM. The text has this:
(§1) initial rates, OD260 product formation, Michaelis-Menten nonlinear fit on catechol 1,2-dioxygenase (CatA)

Substrate in series [1]: Oc1ccccc1O
The description is as above. It is filed as biochemical, Acinetobacter baylyi. As to conditions: 100 mM potassium phosphate pH 7.4, 25 °C, catechol 0-200 μM.
From the text: as §1
The source holds these as a separate data set.

In the case of “catechol 1,2-dioxygenase (CatA) (Acinetobacter baylyi ADP1; L73F)”, in the series on Oc1ccccc1O, the Km was determined as 151.09 ± 10.299 µM and the kcat was found to be 5.65 ± 0.163 s⁻¹.
In the same order, the values of “catechol 1,2-dioxygenase (CatA) (Acinetobacter baylyi ADP1; L73F/P76A)” are 45.96 ± 7.691 µM and 39.5 ± 0.221 s⁻¹.
With “catechol 1,2-dioxygenase (CatA) (Acinetobacter baylyi ADP1; P76A)”, in the series on Oc1ccccc1O, the Km amounted to 65.91 ± 7.753 µM and the catalytic constant (kcat) turned out to be 46.56 ± 0.201 s⁻¹.

B1: catechol 1,2-dioxygenase (CatA) (Acinetobacter baylyi ADP1) (protein)
chain: MEVKIFNTQDVQDFLRVASGLEQEGGNPRVKQIIHRVLSDLYKAIEDLNITSDEYWAGVAYLNQLGANQEAGLLSPGLGFDHYLDMRMDAEDAALGIENATPRTIEGPLYVAGAPESVGYARMDDGSDPNGHTLILHGTIFDADGKPLPNAKVEIWHANTKGFYSHFDPTGEQQAFNMRRSIITDENGQYRVRTILPAGYGCPPEGPTQQLLNQLGRHGNRPAHIHYFVSADGHRKLTTQINVAGDPYTYDDFAYATREGLVVDAVEHTDPEAIKANDVEGPFAEMVFDLKLTRLVDGVDNQVVDRPRLAV
Regarding B1, in series [1], the Km came out at 7.88 ± 1.239 µM and the kcat came to 7.86 ± 0.248 s⁻¹.
